Experimental data from publication PMC7327498, “Structural basis of semaphorin‐plexin cis interaction” (The EMBO Journal, 2020).

T1: PlexA‐mClover (Drosophila melanogaster, UniProt Q9V491 28-1311)
T1 construct: Plexin A (PlexA), Drosophila melanogaster, residues 28–1,311: ectodomain followed by a transmembrane segment; not the purified PlexA‐mClover (residues 67–1,274) used as donor-only control in solution; also called FRET donor PlexA‐mClover; source: COS-7, transiently transfected, on live cells; not shown: mClover, C-terminal, kept
T1 sequence (looked up): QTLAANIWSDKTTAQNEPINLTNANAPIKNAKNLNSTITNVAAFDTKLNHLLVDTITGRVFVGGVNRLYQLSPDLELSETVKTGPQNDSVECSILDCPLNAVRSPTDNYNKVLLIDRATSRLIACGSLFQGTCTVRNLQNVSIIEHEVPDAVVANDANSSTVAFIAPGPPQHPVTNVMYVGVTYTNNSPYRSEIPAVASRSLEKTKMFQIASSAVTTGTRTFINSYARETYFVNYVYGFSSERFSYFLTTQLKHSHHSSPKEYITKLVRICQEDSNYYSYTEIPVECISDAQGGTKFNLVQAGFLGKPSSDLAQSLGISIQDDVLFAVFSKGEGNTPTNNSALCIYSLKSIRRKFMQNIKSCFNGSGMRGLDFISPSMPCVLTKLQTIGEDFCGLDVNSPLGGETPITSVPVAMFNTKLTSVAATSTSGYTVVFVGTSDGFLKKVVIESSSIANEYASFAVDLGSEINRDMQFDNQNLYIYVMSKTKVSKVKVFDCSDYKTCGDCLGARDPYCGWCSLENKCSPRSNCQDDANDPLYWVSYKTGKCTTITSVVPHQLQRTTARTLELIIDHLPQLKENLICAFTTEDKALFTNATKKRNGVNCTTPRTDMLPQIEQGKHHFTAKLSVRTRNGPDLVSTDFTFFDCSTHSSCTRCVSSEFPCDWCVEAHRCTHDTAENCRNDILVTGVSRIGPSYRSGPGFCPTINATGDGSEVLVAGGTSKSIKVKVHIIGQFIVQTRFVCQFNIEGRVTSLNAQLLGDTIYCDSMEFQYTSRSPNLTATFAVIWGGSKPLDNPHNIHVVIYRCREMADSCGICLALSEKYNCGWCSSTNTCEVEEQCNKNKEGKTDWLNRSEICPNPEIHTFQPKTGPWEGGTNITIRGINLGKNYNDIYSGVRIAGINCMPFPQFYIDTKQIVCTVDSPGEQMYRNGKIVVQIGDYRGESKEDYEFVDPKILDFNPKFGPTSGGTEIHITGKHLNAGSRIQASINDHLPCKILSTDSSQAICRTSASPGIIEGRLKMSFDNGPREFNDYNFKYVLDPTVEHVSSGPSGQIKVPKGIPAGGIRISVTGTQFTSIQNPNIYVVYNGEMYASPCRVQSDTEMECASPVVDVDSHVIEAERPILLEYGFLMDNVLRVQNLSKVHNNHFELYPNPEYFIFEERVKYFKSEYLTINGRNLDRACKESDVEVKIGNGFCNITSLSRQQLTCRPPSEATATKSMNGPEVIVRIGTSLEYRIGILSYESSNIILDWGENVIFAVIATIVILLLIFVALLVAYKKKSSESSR


Target: T1, PlexA‐mClover
Test: FRET or BRET; FRET-FLIM in live COS-7 cells transiently co-transfected with PlexA‐mClover (donor) and semaphorin‐mRuby2 (acceptor), cis on one cell surface, 37°C; donor alone τav 2.72 ± 0.03 ns
Conditions: partners not purified

| Binder | average donor lifetime (τav) [ns] | average fraction of the interacting donor (fD) |
| --- | --- | --- |
| Sema1b‐mutB‐mRuby2 (ligand, Drosophila melanogaster, UniProt Q7KK54 37-686, looked up, Semaphorin 1b (Sema1b), Drosophila melanogaster, residues 37–686, loop 350–367 replaced by alanines; source: COS-7, transiently transfected, on live cells; not shown: mRuby2, C-terminal, kept) DVKPDLQTKQDKVLAHFIGNSTDYFKILDHNDEFVLVGAKDVIYNVSLNGLKEIARLEWHSTDADRELCALKGKHEWDCHNYLRVYALRPNGEVLLCGTNSYKPRCRHYTPVEVSSEEAGSAGHAHAMRYEVSRDVEAQGLCPYSPAHNSTYAFADGHLYSATVADFSGGDPLIYRENLRTEQYDLKQLNQPDFVGAIERNGYVLFFFRELSMEVMNFGKAVYSRVARVCKNDRGGPYSHGKSWTSFLKARLNCSVPGEFPFYFDEIQAISPIVESGSKSLIYAVFTTSVNAIPGSAVCAFNVDDILAAFDGEAAAAAAAAAAAAAAAAAAVPKPRPGQCVEDSRTLTSIAVNFIKNHPLMEEAVPAVHGRPLLTKVNLHHRLTAIAVHPQVKSLSGAYYDVIYSGTDDGKVTKFINILSTHPNSTVDRLKTVVISEMQVLPLGTPIRELVISTSKNSLVVVSDGSLVSVPLHHCSHIVDCLGCLSLQDPICAWDLQTHECKNLATSQHKFGTKTYLQSLNSTKKAAALLCPHIPRDAPGAETVSFVTMAPPPTEEQKLLYSNVGSSQGNQPSLEQQPTGGDDFGLNKITLTSMDPDDIMPNLNDPQKSTASVDEIKYASTPSFMLLTTIVFFTFLVGGIAGICCVKAKS | 2.53 ± 0.04 | 0.21 ± 0.07 |
| Sema1b‐mRuby2 (ligand, Drosophila melanogaster, UniProt Q7KK54 37-686, looked up, Semaphorin 1b (Sema1b), Drosophila melanogaster, residues 37–686: ectodomain followed by a transmembrane segment; also called wild‐type Sema1b‐mRuby2; source: COS-7, transiently transfected, on live cells; not shown: mRuby2, C-terminal, kept) DVKPDLQTKQDKVLAHFIGNSTDYFKILDHNDEFVLVGAKDVIYNVSLNGLKEIARLEWHSTDADRELCALKGKHEWDCHNYLRVYALRPNGEVLLCGTNSYKPRCRHYTPVEVSSEEAGSAGHAHAMRYEVSRDVEAQGLCPYSPAHNSTYAFADGHLYSATVADFSGGDPLIYRENLRTEQYDLKQLNQPDFVGAIERNGYVLFFFRELSMEVMNFGKAVYSRVARVCKNDRGGPYSHGKSWTSFLKARLNCSVPGEFPFYFDEIQAISPIVESGSKSLIYAVFTTSVNAIPGSAVCAFNVDDILAAFDGEFKSQKDSQSHWLPVEREQVPKPRPGQCVEDSRTLTSIAVNFIKNHPLMEEAVPAVHGRPLLTKVNLHHRLTAIAVHPQVKSLSGAYYDVIYSGTDDGKVTKFINILSTHPNSTVDRLKTVVISEMQVLPLGTPIRELVISTSKNSLVVVSDGSLVSVPLHHCSHIVDCLGCLSLQDPICAWDLQTHECKNLATSQHKFGTKTYLQSLNSTKKAAALLCPHIPRDAPGAETVSFVTMAPPPTEEQKLLYSNVGSSQGNQPSLEQQPTGGDDFGLNKITLTSMDPDDIMPNLNDPQKSTASVDEIKYASTPSFMLLTTIVFFTFLVGGIAGICCVKAKS | 2.51 ± 0.06 | 0.26 ± 0.09 |
| Sema1b‐mutA‐mRuby2 (ligand, Drosophila melanogaster, UniProt Q7KK54 37-686, looked up, Semaphorin 1b (Sema1b), Drosophila melanogaster, residues 37–686, site A mutant; source: COS-7, transiently transfected, on live cells; not shown: mRuby2, C-terminal, kept) DVKPDLQTKQDKVLAHFIGNSTDYFKILDHNDEFVLVGAKDVIYNVSLNGLKEIARLEWHSTDADRELCALKGKHEWDCHNYLRVYALRPNGEVLLCGTNSYKPRCRHYTPVEVSSEEAGSAGHAHAMRYEVSRDVEAQGLCPYSPAHNSTYAFADGHLYSATVADESGGDPLIYRENLRTERYDLEQLNQPDFVGAIERNGYVLFFFRELSMEVMNFGKAVYSRVARVCKNDRGGPYSHGKSWTSFLKARLNCSVPGEFPFYFDEIQAISPIVESGSKSLIYAVFTTSVNAIPGSAVCAFNVDDILAAFDGEFKSQKDSQSHWLPVEREQVPKPRPGQCVEDSRTLTSIAVNFIKNHPLMEEAVPAVHGRPLLTKVNLHHRLTAIAVHPQVKSLSGAYYDVIYSGTDDGKVTKFINILSTHPNSTVDRLKTVVISEMQVLPLGTPIRELVISTSKNSLVVVSDGSLVSVPLHHCSHIVDCLGCLSLQDPICAWDLQTHECKNLATSQHKFGTKTYLQSLNSTKKAAALLCPHIPRDAPGAETVSFVTMAPPPTEEQKLLYSNVGSSQGNQPSLEQQPTGGDDFGLNKITLTSMDPDDIMPNLNDPQKSTASVDEIKYASTPSFMLLTTIVFFTFLVGGIAGICCVKAKS | 2.43 ± 0.1 | 0.37 ± 0.15 |
